Assay in all cases: two-hybrid library CCNG1;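 note: natural log of median RNA to DNA barcode read ratio; higher means stronger binding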
Assay [1] addresses T1, 4H3817-bN.
T1 chain: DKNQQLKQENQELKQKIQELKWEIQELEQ

The target of assay [2] is T2, 4H584-bN.
T2 chain: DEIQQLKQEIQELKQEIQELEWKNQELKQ

For assay [3], the target named is T3, 4H3974-bN.
T3 chain: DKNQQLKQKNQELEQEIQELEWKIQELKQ

In assay [4] the target is T4, 4H1804-bN.
T4 chain: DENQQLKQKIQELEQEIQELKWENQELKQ

Assay [5] has as its target T5, 4H2586-bN.
T5 chain: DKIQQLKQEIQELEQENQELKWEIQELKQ

In assay [6] the target is T6, 4H3638-bN.
T6 chain: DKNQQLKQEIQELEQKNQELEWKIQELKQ

In assay [7] the target is T7, 4H2839-bN.
T7 chain: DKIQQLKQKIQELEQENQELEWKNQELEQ

Assay [8] concerns the target T8, 4H3172-bN.
T8 chain: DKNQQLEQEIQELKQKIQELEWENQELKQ

In assay [9] the target is T9, 4H850-bN.
T9 chain: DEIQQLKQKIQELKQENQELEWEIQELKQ

The target in assay [10] is T10, 4H619-bN.
T10 chain: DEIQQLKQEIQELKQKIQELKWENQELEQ

Assay [11] deals with T11, 4H906-bN.
T11 chain: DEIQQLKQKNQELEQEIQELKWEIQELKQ

Assay [12] addresses T12, 4H570-bN.
T12 chain: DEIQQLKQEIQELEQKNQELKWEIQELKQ

Assay [13] addresses T13, 4H3129-bN.
T13 chain: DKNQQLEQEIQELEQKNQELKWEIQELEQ

The target of assay [14] is T14, 4H3631-bN.
T14 chain: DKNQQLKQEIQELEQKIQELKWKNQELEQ

Assay [15] concerns the target T15, 4H1985-bN.
T15 chain: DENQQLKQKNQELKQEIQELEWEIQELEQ

In assay [16] the target is T16, 4H3414-bN.
T16 chain: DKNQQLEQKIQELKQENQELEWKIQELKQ

For assay [17], the target named is T17, 4H1629-bN.
T17 chain: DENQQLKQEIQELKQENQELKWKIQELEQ

Assay [18] addresses T18, 4H1710-bN.
T18 chain: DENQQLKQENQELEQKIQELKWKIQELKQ

With DENQQLKQEIQELKQENQELKWKIQELEQ [4H1629-bN], the interaction score is -2.51 in assay [1]; -0.0341 in assay [2]; -0.785 in assay [3]; -2.35 in [4]; -1.65 in [5]; -1.43 in assay [6]. The interaction score is -1.72 in [7]; -0.119 in assay [8]; -0.949 in [9]; -0.476 in assay [10]; -1.39 in assay [11]; -2.4 in [12]. The interaction score in [13] was -0.732; in assay [14], -0.59; in assay [15], -0.575; in assay [16], -0.735; in assay [17] it was 1.42; in assay [18], -0.768.
